Here are results for one substance from article PMC2696619.

Assay [1] deals with human C3b (human) (UniProt P01024). Put plainly: radioligand binding.
Assay [2] shares this target. Put plainly: radioligand binding. This is another data set of the same source.

pIC50: −log10 of the molar value. Like-named read-outs stand apart in the source and are kept apart here.

For the substance “wildtype rH19-20 (recombinant domains 19-20 of factor H) (from UniProt P08603 1107-1231) (domain or fragment)”, the results for the negative logarithm of the IC50 (pIC50) with human C3b (human) [1] and with human C3b (human) [2] were 6.70 and 6.00, respectively.
